# Test results taken from the Human Domainome abundance scans (Beltran et al. 2025).
# ± gives the uncertainty stated by the source.
# B1: Serine/threonine-protein kinase A-Raf, residues 21 to 89; numbered along this chain, P10398 (parent)
# chain: VKVYLPNKQRTVVTVRDGMSVYDSLDKALKVRGLNQDCCVVYRLIKGRKTVTAWDTAIAPLDGEELIVE
# Variants of: B1
# Test: abundance fitness (aPCA) (normalised: wild type 0, dead -1); higher = more abundant; growth selection in yeast, the domain comes from the species named
# Conditions: Homo sapiens
row,Variant,abundance fitness
1,V21R,-0.864 ± 0.15
2,L29R,-0.969 ± 0.099
3,E65D,-0.136 ± 0.081
4,V40R,-0.131 ± 0.051
5,D23H,-0.345 ± 0.26
6,L61M,0.017 ± 0.087
7,K2E,-0.379 ± 0.06
8,K30M,-0.288 ± 0.097
9,Q9N,-0.332 ± 0.17
10,V1S,-0.528 ± 0.25
11,L44C,-0.684 ± 0.38
12,Y4T,-0.101 ± 0.061
13,E65I,-0.088 ± 0.45
14,E69F,-0.884 ± 0.23
15,D37P,-0.662 ± 0.26
16,Q9A,-0.198 ± 0.047
17,V15S,-0.179 ± 0.053
18,V15R,-0.822 ± 0.087
19,D37G,-0.219 ± 0.061
20,V15N,-0.408 ± 0.13
21,D62P,-0.095 ± 0.073
22,W54D,-0.743 ± 0.33
23,L5E,-0.844 ± 0.21
24,K46C,-0.133 ± 0.11

row,Variant,abundance fitness
1,T56I,-0.47 ± 0.099
2,L44P,-0.853 ± 0.17
3,I45T,-0.319 ± 0.12
4,A59L,-0.071 ± 0.049
5,Q36I,-0.043 ± 0.12
6,L34T,-1.05 ± 0.23
7,V15H,-0.122 ± 0.096
8,G18D,-0.143 ± 0.2
9,R16P,-0.117 ± 0.063
10,V1C,-0.184 ± 0.28
11,R43M,-1 ± 0.23
12,N35E,0.016 ± 0.068
13,C38F,-0.136 ± 0.097
14,V12G,-0.983 ± 0.14
15,D26C,0.063 ± 0.099
16,V13P,-0.772 ± 0.15
17,C39P,-0.805 ± 0.2
18,K46G,0.014 ± 0.039
19,S24T,-0.025 ± 0.046
20,S20Y,-0.623 ± 0.23
21,D23A,-0.201 ± 0.05
22,R43A,-0.721 ± 0.14
23,R10S,0.177 ± 0.052
24,D26Y,-0.182 ± 0.14

row,Variant,abundance fitness
1,I58S,-0.278 ± 0.068
2,G33V,-0.573 ± 0.069
3,R32S,-0.141 ± 0.058
4,V3Y,-0.016 ± 0.14
5,T56S,-0.009 ± 0.038
6,T14G,-0.295 ± 0.042
7,T14W,-0.098 ± 0.067
8,T56L,-0.253 ± 0.031
9,L34S,-0.835 ± 0.17
10,K49L,-0.331 ± 0.039
11,S24I,0.027 ± 0.12
12,G47C,-0.826 ± 0.17
13,G47V,-0.863 ± 0.097
14,R48L,-0.307 ± 0.062
15,Y22D,-0.83 ± 0.25
16,V41I,-0.507 ± 0.17
17,I45G,-0.198 ± 0.12
18,S24Q,-0.411 ± 0.071
19,V1I,-0.096 ± 0.18
20,R16D,-0.106 ± 0.097
21,A59P,-0.646 ± 0.12
22,L25F,-0.903 ± 0.24
23,Y22K,0.012 ± 0.062
24,R32P,-0.59 ± 0.19

row,Variant,abundance fitness
1,D55Y,-0.648 ± 0.15
2,V40S,-0.321 ± 0.05
3,D26G,-0.1 ± 0.047
4,V1M,-0.141 ± 0.1
5,D23K,-0.106 ± 0.077
6,Y42I,-0.844 ± 0.35
7,D55C,-0.52 ± 0.087
8,R43C,-0.742 ± 0.15
9,N35I,-0.682 ± 0.19
10,R43W,-0.911 ± 0.38
11,D17Y,-0.319 ± 0.075
12,D26T,-0.277 ± 0.12
13,V31P,-0.41 ± 0.1
14,G47D,-0.71 ± 0.21
15,K30Q,-0.217 ± 0.063
16,K46T,-0.383 ± 0.069
17,L25R,-0.924 ± 0.082
18,P60E,0.064 ± 0.059
19,D37Y,-0.408 ± 0.15
20,A53N,-0.257 ± 0.13
21,K46W,-0.667 ± 0.093
22,K2L,-0.349 ± 0.09
23,D55F,-0.872 ± 0.13
24,V31N,-0.073 ± 0.17

row,Variant,abundance fitness
1,Y4K,0.069 ± 0.059
2,S20G,-0.94 ± 0.13
3,D55M,-0.557 ± 0.064
4,K8F,-0.363 ± 0.072
5,I58A,-0.201 ± 0.085
6,G18K,-0.08 ± 0.08
7,L5K,-0.99 ± 0.16
8,Q36K,0.046 ± 0.15
9,V51E,-0.128 ± 0.064
10,K46H,-0.259 ± 0.11
11,K49V,-0.934 ± 0.17
12,E64K,-0.295 ± 0.1
13,E64S,-0.112 ± 0.08
14,G47F,-0.998 ± 0.25
15,N7V,-0.929 ± 0.073
16,V31F,-0.187 ± 0.12
17,N35F,-0.449 ± 0.18
18,V41A,-0.274 ± 0.061
19,D17A,0.039 ± 0.058
20,V3E,-0.745 ± 0.12
21,V15C,0 ± 0.054
22,D37L,-0.567 ± 0.089
23,Y42P,-0.926 ± 0.15
24,V12D,-0.341 ± 0.18

row,Variant,abundance fitness
1,R10M,0.139 ± 0.06
2,R32E,-0.193 ± 0.045
3,E64G,-0.25 ± 0.088
4,I58Q,-0.952 ± 0.2
5,E64T,-0.006 ± 0.13
6,N7T,-0.655 ± 0.072
7,Q36G,-0.398 ± 0.09
8,G63R,-0.799 ± 0.073
9,P6S,-0.233 ± 0.24
10,A28V,0.1 ± 0.042
11,G18E,-0.25 ± 0.12
12,S24W,-0.35 ± 0.061
13,G18V,-0.663 ± 0.064
14,K2F,-0.466 ± 0.33
15,Q36N,-0.574 ± 0.22
16,V68A,-0.391 ± 0.41
17,G33P,-0.953 ± 0.24
18,Y22W,-0.069 ± 0.051
19,K30I,-0.63 ± 0.47
20,Q9R,-0.211 ± 0.043
21,Y42Q,-0.945 ± 0.38
22,K49A,-0.516 ± 0.083
23,D37W,-0.838 ± 0.31
24,Y42D,-0.928 ± 0.21

row,Variant,abundance fitness
1,V13G,-1.06 ± 0.16
2,G63N,-0.265 ± 0.31
3,V41T,-0.8 ± 0.28
4,P60K,0.024 ± 0.057
5,D23F,-0.056 ± 0.12
6,D23M,-0.301 ± 0.069
7,V51T,-0.324 ± 0.15
8,Q9K,-0.042 ± 0.095
9,A28M,-0.037 ± 0.087
10,K30R,-0.006 ± 0.032
11,Y22P,-0.95 ± 0.19
12,E65L,-0.349 ± 0.1
13,L34R,-1 ± 0.12
14,Q9D,0.028 ± 0.094
15,V41Q,-0.849 ± 0.17
16,Y4F,-0.063 ± 0.077
17,A28D,-0.371 ± 0.14
18,M19E,-0.013 ± 0.078
19,C39G,-0.944 ± 0.18
20,K30G,-0.426 ± 0.053
21,V13R,-0.78 ± 0.078
22,R10E,0.118 ± 0.064
23,E69L,-0.889 ± 0.18
